Source: US20090214528A1 (published 2009)

Biological target: human tissue factor (human, UniProt P13726 33-295)
Experiment: cell-based or functional assay

- ADCC potency relative to CNTO 860 derived from C463, second experiment, 51Cr-release on HCT 116 cells: ~10 fold
B1: CNTO 860 derived from the YB2/0 host cell line C1083B (antibody, human IgG1, kappa, V domains shown)
VH: QVQLVESGGGVVQPGRSLRLSCKASGFNIKDYYMHWVRQAPGKGLEWIGLIDPENGNTIYDPKFQGRFTISADNSKNTLFLQMDSLRPEDTAVYYCARDNSYYFDYWGQGTPVTVSS
VL: DIQMTQSPSSLSASVGDRVTITCKASQDIRKYLNWYQQKPGKAPKLLIYYATSLADGVPSRFSGSGSGTDYTFTISSLQPEDIATYYCLQHGESPYTFGQGTKLEITR
